Test results taken from article PMC4108184.

B1: Mag6390 (MAG_6390) (Mycoplasmopsis agalactiae PG2) (protein)
chain: MAKDKFVRTVLGDVPAESIGITDCHDHLIKNGGPEMHEHPDFLMIDVEAAKKEVQEYVDHGGKTIVTMDPPNVGRDVYRMLEIAEAFKGKANIVMSTGFHKAAFYDKYSSWLACVPTDDIVKMMVAEVEEGMDEYNYNGPVVKRSKAKAGIIKAGTGYAAIDRLELKALEVAARTSITTGCPILVHTQLGTMALEVAQHLIGFGANPRKIQLSHLNKNPDRYYYEKIIKETGVTICFDGPDRVKYYPDSLLADHIKYLVDKGLQKHITLSLDAGRILYQRNYGLTKGKETFGLSYLFERFIPLLKQVGVSQEAIDDILINNPREILAFDEPRVYDASKVSSEVVQLKKDLKLL
B2: Ms0025 (MS53_0025) (Mycoplasmopsis synoviae 53) (protein)
chain: MENKFARTVLGDIPVEKLGITDCHDHFIKNGGPEVEEHIDFLMLNVDASIKEFKEFIDRGGSTIVTMDPPNVGRDVLKTLEIANAVKNLGGNVIMSTGFHKAKFYDKYSSWLAVVPTEEIVKMCVAEIEEGMDEYNYNGPVVKRSKAKAGIIKAGTGYGAIDRLELKALEVAARTSILTGCPILVHTQLGTMALEVAKHLIGFGANPDKIQISHLNKNPDKYYYEKVIKETGVTLCFDGPDRVKYYPDSLLAENIKYLVDKGLQKHITLSLDAGRILYQRNYGLTKGKQTFGLAYLFDRFLPLLKQVGVSKEAIFDILVNNPKRVLAFDEKRNFDPLKVSKEVLELKKELNLN

What was measured:
[1] = substrate: O=C1O[C@@H](COP(=O)(O)O)[C@H](O)[C@H]1O; assay: purified protein; conditions: 2.5 mM Bicine pH 8.3, 0.2 M NaCl, zinc enzyme
[2] = substrate: O=C1O[C@H](COP(=O)(O)O)[C@H](O)[C@H]1O; assay: purified protein; conditions: 2.5 mM Bicine pH 8.3, 0.2 M NaCl, zinc enzyme

Protein	Km [1]	kcat [1]	kcat/Km [1]	Km [2]	kcat [2]	kcat/Km [2]
B1	660 ± 60 µM	8.7 ± 0.3 s⁻¹	13000 ± 1000 M⁻¹ s⁻¹	900 ± 100 µM	–	–
B2	300 ± 20 µM	–	–	500 ± 40 µM	23.4 ± 0.8 s⁻¹	47000 ± 4000 M⁻¹ s⁻¹
